Numbering of substitutions follows the chain as printed.
T1: MAGE-A4 peptide on HLA-A*02:01 (human)
T1 peptide: KVLEHVVRV

B1: PN41867 (TCR, V domains shown)
V domain 1: AQTVTQSQPEMSVQEAETVTLSCTYDTSENNYYLFWYKQPPSRQMILVIRQEAYKQQNATENRFSVNFQKAAKSFSLKISDSQLGDTAMYFCAFMKTQGGSEKLVFGKGTKLTVNP
V domain 2: AAGVIQSPRHLIKEKRETATLKCYPIPRHDTVYWYQQGPGQDPQFLISFYEKMQSDKGSIPDRFSAQQFSDYHSELNMSSLELGDSALYFCASSLVGYGYTFGSGTRLTVV
notes: stained with anti-mouse TCR constant region H57-597; full-length chains on transfected CHO cells; also called TCR No. 36
B2: PN41805 (TCR, V domains shown)
V domain 1: AQTVTQSQPEMSVQEAETVTLSCTYDTSENNYYLFWYKQPPSRQMILVIRQEAYKQQNATENRFSVNFQKAAKSFSLKISDSQLGDTAMYFCAFGMYSGGGADGLTFGKGTHLIIQP
V domain 2: AAGVIQSPRHLIKEKRETATLKCYPIPRHDTVYWYQQGPGQDPQFLISFYEKMQSDKGSIPDRFSAQQFSDYHSELNMSSLELGDSALYFCASSPTGTGDGYTFGSGTRLTVV
notes: stained with anti-mouse TCR constant region H57-597; full-length chains on transfected CHO cells; also called TCR No. 30
B3: PN41703 (TCR, V domains shown)
V domain 1: DAKTTQPPSMDCAEGRAANLPCNHSTISGNEYVYWYRQIHSQGPQYIIHGLKNNETNEMASLIITEDRKSSTLILPHATLRDTAVYYCIVRPGGTYKYIFGTGTRLKVLA
V domain 2: DVKVTQSSRYLVKRTGEKVFLECVQDMDHENMFWYRQDPGLGLRLIYFSYDVKMKEKGDIPEGYSVSREKKERFSLILESASTNQTSMYLCATGGDNQPQHFGDGTRLSIL
notes: stained with anti-mouse TCR constant region H57-597; full-length chains on transfected CHO cells; also called TCR No. 26
B4: PN41712 (TCR, V domains shown)
V domain 1: AQTVTQSQPEMSVQEAETVTLSCTYDTSENNYYLFWYKQPPSRQMILVIRQEAYKQQNATENRFSVNFQKAAKSFSLKISDSQLGDTAMYFCALNTGNQFYFGTGTSLTVIP
V domain 2: GAVVSQHPSWVICKSGTSVKIECRSLDFQATTMFWYRQFPKQSLMLMATSNEGSKATYEQGVEKDKFLINHASLTLSTLTVTSAHPEDSSFYICSAWDGFYGYTFGSGTRLTVV
notes: stained with anti-mouse TCR constant region H57-597; full-length chains on transfected CHO cells; also called TCR No. 27
B5: PN41748 (TCR, V domains shown)
V domain 1: SQELEQSQQSLIVQEGKNLTINCTSSKTLYGLYWYKQKYGEGLIFLMMLQKGGEEKSHEKITAKLDEKKQQSSLHITASQPSHAGIYLCGADMYSGGGADGLTFGKGTHLIIQP
V domain 2: B4 V domain 2
notes: stained with anti-mouse TCR constant region H57-597; full-length chains on transfected CHO cells; also called TCR No. 29
B6: PN41654 (TCR, V domains shown)
V domain 1: GESVGLHLPTLSVQEGDNSIINCAYSNSASDYFIWYKQESGKGPQFIIDIRSNMDKRQGQRVTVLLNKTVKHLSLQIAATQPGDSAVYFCAEKRDNYGQNFVFGPGTRLSVLP
V domain 2: DVKVTQSSRYLVKRTGEKVFLECVQDMDHENMFWYRQDPGLGLRLIYFSYDVKMKEKGDIPEGYSVSREKKERFSLILESASTNQTSMYLCASSLYSYGYTFGSGTRLTVV
notes: stained with anti-mouse TCR constant region H57-597; full-length chains on transfected CHO cells; also called TCR No. 22
B7: PN41746 (TCR, V domains shown)
V domain 1: AQTVTQSQPEMSVQEAETVTLSCTYDTSESDYYLFWYKQPPSRQMILVIRQEAYKQQNATENRFSVNFQKAAKSFSLKISDSQLGDAAMYFCAYRSATGNQFYFGTGTSLTVIP
V domain 2: DVKVTQSSRYLVKRTGEKVFLECVQDMDHENMFWYRQDPGLGLRLIYFSYDVKMKEKGDIPEGYSVSREKKERFSLILESASTNQTSMYLCASSLWGLNTEAFFGQGTRLTVV
notes: stained with anti-mouse TCR constant region H57-597; full-length chains on transfected CHO cells; also called TCR No. 28
B8: PN41656 (TCR, V domains shown)
V domain 1: AQKITQTQPGMFVQEKEAVTLDCTYDTSDPSYGLFWYKQPSSGEMIFLIYQGSYDQQNATEGRYSLNFQKARKSANLVISASQLGDSAMYFCAMRDLTTSGTYKYIFGTGTRLKVLA
V domain 2: B7 V domain 2 with L95F, W96G, L98W, N99G, T100Y, E101G, A102Y, F103T, Q106S
notes: stained with anti-mouse TCR constant region H57-597; full-length chains on transfected CHO cells; also called TCR No. 23
B9: PN41820 (TCR, V domains shown)
V domain 1: AQSVTQPGSHVSVSEGALVLLRCNYSSSVPPYLFWYVQYPNQGLQLLLKYTTGATLVKGINGFEAEFKKSETSFHLTKPSAHMSDAAEYFCAVSSGSARQLTFGSGTQLTVLP
V domain 2: B7 V domain 2 with L95H, W96D, G97R, L98W, N99D, T100Y, E101G, A102Y, F103T, Q106S
notes: stained with anti-mouse TCR constant region H57-597; full-length chains on transfected CHO cells; also called TCR No. 31
B10: PN41565 (TCR, V domains shown)
V domain 1: B7 V domain 1 with A97P
V domain 2: B7 V domain 2 with G97A, L98M
notes: stained with anti-mouse TCR constant region H57-597; full-length chains on transfected CHO cells; also called TCR No. 13
B11: PN41568 (TCR, V domains shown)
V domain 1: B7 V domain 1 with T98R
V domain 2: B7 V domain 2 with L98T, T100E, E101K, A102L, Q106S, R109Q, T111S, V113L
notes: stained with anti-mouse TCR constant region H57-597; full-length chains on transfected CHO cells; also called TCR No. 14
B12: PN41532 (TCR, V domains shown)
V domain 1: B7 V domain 1 with T98E
V domain 2: B7 V domain 2
notes: stained with anti-mouse TCR constant region H57-597; full-length chains on transfected CHO cells; also called TCR No. 8
B13: PN41822 (TCR, V domains shown)
V domain 1: B7 V domain 1
V domain 2: B7 V domain 2 with G97A
notes: stained with anti-mouse TCR constant region H57-597; full-length chains on transfected CHO cells; also called TCR No. 32
B14: PN41577 (TCR, V domains shown)
V domain 1: B7 V domain 1 with T98P
V domain 2: B7 V domain 2 with L98T, T100E, E101K, A102L, Q106S, R109Q, T111S, V113L
notes: stained with anti-mouse TCR constant region H57-597; full-length chains on transfected CHO cells; also called TCR No. 16
B15: PN41690 (TCR, V domains shown)
V domain 1: B7 V domain 1 with T98I
V domain 2: B7 V domain 2 with L98V
notes: stained with anti-mouse TCR constant region H57-597; full-length chains on transfected CHO cells; also called TCR No. 24
B16: PN41475 (TCR, V domains shown)
V domain 1: B7 V domain 1 with E61V
V domain 2: B7 V domain 2 with L98S
notes: stained with anti-mouse TCR constant region H57-597; full-length chains on transfected CHO cells; also called TCR No. 1
B17: PN41523 (TCR, V domains shown)
V domain 1: B7 V domain 1 with T98P
V domain 2: B7 V domain 2
notes: stained with anti-mouse TCR constant region H57-597; full-length chains on transfected CHO cells; also called TCR No. 7
B18: PN41617 (TCR, V domains shown)
V domain 1: B7 V domain 1 with T98S
V domain 2: B7 V domain 2 with L98M
notes: stained with anti-mouse TCR constant region H57-597; full-length chains on transfected CHO cells; also called TCR No. 20
B19: PN41702 (TCR, V domains shown)
V domain 1: B7 V domain 1
V domain 2: B7 V domain 2 with G97A, L98V, T100E, E101K, A102L, Q106S, R109Q, T111S, V113L
notes: stained with anti-mouse TCR constant region H57-597; full-length chains on transfected CHO cells; also called TCR No. 25
B20: PN41573 (TCR, V domains shown)
V domain 1: B7 V domain 1
V domain 2: B7 V domain 2 with L98T, T100E, E101K, A102L, Q106S, R109Q, T111S, V113L
notes: stained with anti-mouse TCR constant region H57-597; full-length chains on transfected CHO cells; also called TCR No. 15
B21: PN41513 (TCR, V domains shown)
V domain 1: B7 V domain 1 with T98P
V domain 2: B7 V domain 2 with W96F, G97A, L98T, T100E, E101K, A102L, Q106S, R109Q, T111S, V113L
notes: stained with anti-mouse TCR constant region H57-597; full-length chains on transfected CHO cells; also called TCR No. 3
B22: PN41608 (TCR, V domains shown)
V domain 1: B7 V domain 1 with T98P
V domain 2: B7 V domain 2 with L95F, L98W
notes: stained with anti-mouse TCR constant region H57-597; full-length chains on transfected CHO cells; also called TCR No. 18
B23: PN41494 (TCR, V domains shown)
V domain 1: B7 V domain 1
V domain 2: B7 V domain 2 with L98W, T100S, E101P, A102L, F103H, Q106N, V113T
notes: stained with anti-mouse TCR constant region H57-597; full-length chains on transfected CHO cells; also called TCR No. 2
B24: PN41518 (TCR, V domains shown)
V domain 1: B7 V domain 1 with T98P
V domain 2: B7 V domain 2 with G97A, L98T, T100E, E101K, A102L, Q106S, R109Q, T111S, V113L
notes: stained with anti-mouse TCR constant region H57-597; full-length chains on transfected CHO cells; also called TCR No. 5
B25: PN41829 (TCR, V domains shown)
V domain 1: B7 V domain 1
V domain 2: B7 V domain 2 with W96F, G97A
notes: stained with anti-mouse TCR constant region H57-597; full-length chains on transfected CHO cells; also called TCR No. 33
B26: PN41520 (TCR, V domains shown)
V domain 1: B7 V domain 1 with T98R
V domain 2: B7 V domain 2 with L98V, T100S, E101P, A102L, F103H, Q106N, V113T
notes: stained with anti-mouse TCR constant region H57-597; full-length chains on transfected CHO cells; also called TCR No. 6
B27: PN41869 (TCR, V domains shown)
V domain 1: B7 V domain 1 with A97S
V domain 2: B7 V domain 2 with L98T, T100E, E101K, A102L, Q106S, R109Q, T111S, V113L
notes: stained with anti-mouse TCR constant region H57-597; full-length chains on transfected CHO cells; also called TCR No. 38
B28: PN41868 (TCR, V domains shown)
V domain 1: B7 V domain 1
V domain 2: B7 V domain 2 with L98T, N99H, T100E, E101K, A102L, Q106S, R109Q, T111S, V113L
notes: stained with anti-mouse TCR constant region H57-597; full-length chains on transfected CHO cells; also called TCR No. 37
B29: PN41852 (TCR, V domains shown)
V domain 1: B7 V domain 1 with T98L, Q101D, F102M, Y103R, T106A, S109R, I113K
V domain 2: B7 V domain 2 with G97A
notes: stained with anti-mouse TCR constant region H57-597; full-length chains on transfected CHO cells; also called TCR No. 35
B30: PN41559 (TCR, V domains shown)
V domain 1: B7 V domain 1
V domain 2: B7 V domain 2 with L98W, N99G
notes: stained with anti-mouse TCR constant region H57-597; full-length chains on transfected CHO cells; also called TCR No. 12
B31: PN41607 (TCR, V domains shown)
V domain 1: B7 V domain 1 with T98S
V domain 2: B7 V domain 2 with L98T, T100E, E101K, A102L, Q106S, R109Q, T111S, V113L
notes: stained with anti-mouse TCR constant region H57-597; full-length chains on transfected CHO cells; also called TCR No. 17

Columns and labels:
[1] = molecular target: T2, soluble HLA-A2 (…) tetramer (human); test: flow cytometry, HLA-A2 (…) tetramer staining of CHO cells transfected with the TCR
T2 construct: Bought tetramer reagent; also called MAGE-A4/HLA tetramer reagent; HLA-A02:01 MAGE-A4 tetramer
Experimental: Samples were then analyzed on an LSRFortessa X-20 (BD Biosciences, San Jose, Calif.).

[2] = molecular target: T1, MAGE-A4 peptide on HLA-A*02:01; test: multimer staining

Binder	% in Ag+ gate >250 MFI, >1% [1] [%]	binding result [2]
B1	73	recognises
B2	30.4	recognises
B3	42.5	recognises
B4	20.7	recognises
B5	9.56	recognises
B6	36.2	recognises
B7	90.2	recognises
B8	13.8	recognises
B9	8.32	recognises
B10	4.02	recognises
B11	82.9	recognises
B12	85.4	recognises
B13	63.5	recognises
B14	80	recognises
B15	75.3	recognises
B16	65.5	recognises

Binder	% in Ag+ gate >250 MFI, >1% [1] [%]	binding result [2]
B17	90.5	recognises
B18	90.6	recognises
B19	8.13	recognises
B20	85.7	recognises
B21	29.6	recognises
B22	77	recognises
B23	9.24	recognises
B24	34.9	recognises
B25	19.5	recognises
B26	16.9	recognises
B27	76.5	recognises
B28	67.1	recognises
B29	18	recognises
B30	74.3	recognises
B31	81	recognises
